Results: publication PMC10847457 (Cell Discovery, 2024)

Biological target: MERS-CoV S trimer (stabilized soluble S2P) (MERS-CoV, strain not named; stand-in …, UniProt K9N5Q8, stabilised)
Experiment: ELISA
Conditions: both partners purified

Binder	binding result
PW5-5 (antibody, V domains shown, also called PW5-5 IgG; IgG PW5-5) VH: QVQLVQSGAEVKKPGASVKVSCKTSGYTFTDHYMYWVRQAPGQGLEWMGVINPDAGSVTYAQKFQGRVTMTSDTSTSTVYMELSSLRSEDTAVYYCARDLFFIPAANSFDYWGQGTLVTVSS VL: EIVLTQSPATLSLSPGERATLSCRASQSVSSYLAWYQQKPGQAPRLLIYDATNRATGIPARFSGSGSGTDFTLTISSLEPEDFAVYYCQHRSNWPRMFTFGQGTKLEIK	binds
PW5-535 (antibody, V domains shown) VH: EVRLVESGGGLVQPGGSLRLSCAASGFTFRNYDIHWVRQTTGKGLEWVSAVGTSGDTYYLDSVKGRFTISREDAKKSVYLQMNSLRAGDTAMYYCVRGDASPDNIYYYMDVWGTGTRVIVSS VL: DIQVTQSPSPLSASVGDRVTITCRASQTIGKYLNWYHQIPGKAPKLLISAASTLHSGVPSRFSGRGSGTDFTLTISSLQPEDFGTYYCQQSYSSPPWTFGQGTKVEIK	binds
